Source: US20120172306A1, “Use of HASF as a Protective Agent Against Ischemic Tissue Damage” (Duke University, priority 2009, published 2012)

What was measured:
[1] = test system: rat myocardial infarction; experiment: In vivo ischemia/reperfusion injury, fibrosis (Masson's trichrome); conditions: 1 μg intramyocardial, 4 weeks after ischemia/reperfusion
Protocol: FIG. 5C is a series of photographs and a bar graph showing fibrosis. For fibrosis analysis, animals were sacrificed 4 weeks after the initial ischemia/reperfusion injury and serial cryosections of 5 μm thick were made immediately below the ligation area, 10 sections for each heart were analyzed. HASF injected group N=8 rats. PBS injected control group N=6. Brilliant blue color stained collagen area was quantified using ImageJ computer software and the mean of % fibrosis was calculated as collagen positive area/total area. *** P<0.001.
Female Sprague-Dawley rats were used for all in vivo experiments. A midsternal thoracotomy was performed to expose the anterior surface of the heart after anesthesia. The proximal left […] coronary artery (LAD) was identified and a 6.0 suture (Ethicon) was placed around the artery and surrounding myocardium. […]
For fibrosis analysis, animals were sacrificed 4 weeks after the initial 30 min ischemia/24 h reperfusion injury and serial cyrosections of 5 μm thick were made immediately below the ligation area, 10 sections for each heart analyzed, and with 8 rats in HASF protein injected group and 6 rats in PBS injected control group. […] Brilliant blue color stained collagen area was quantified using ImageJ computer software and the mean of % fibrosis was calculated as collagen positive area/total area.

[2] = test system: rat myocardial infarction; experiment: In vivo ischemia/reperfusion injury, infarct size (TTC/Evans Blue); conditions: 1 μg intramyocardial injection, 30 min ischemia, 24 h reperfusion
Protocol: FIG. 5A is a series of photographs and a bar graph showing infarct area. Rats were randomly divided into PBS control group and HASF injected group, n=10 for each group. The reperfusion injury model was achieved by 30 min coronary ligation with the immediate injection of vehicle PBScontrol or 1 μg of […] recombinant protein into the myocardium area below ligation suture, followed by loosening of the ligation suture to achieve reperfusion injury. […] The mean of % of infarct area for all sections of each heart was calculated blindly for comparisons using ImageJ computer software. Representative photos from each group are shown.
Female Sprague-Dawley rats were used for all in vivo experiments. A midsternal thoracotomy was performed to expose the anterior surface of the heart after anesthesia. […]
For analysis of infarct size, 24 h after reperfusion, the LAD was re-ligated and ˜300 μl of 1% Evans Blue in PBS (pH 7.4) was retrogradely infused into the heart in a 2-3 min period to delineate the non-ischemic area. […] Area at risk (AAR) was calculated as the left ventricular total area excluding Evans Blue dye positive area, and % infarct area was calculated as the % of infarct area/AAR. The mean of % of infarct area for all sections of each heart was calculated blindly for comparisons using ImageJ computer software, with 10 rats in each group.

[3] = test system: primary embryonic rat neurons; experiment: Caspase 9 assay in H2O2 challenged primary neurons; format: cell-based; conditions: H2O2 (50 μM) 30 min
Protocol: FIG. 2E is a bar graph showing caspase activity in primary neurons. Embryonic rat neuronal cells were pre-incubated ±100 nM of HASF recombinant protein for 30 min, and then challenged with 200 μM of H2O2 […]. Apoptosis was determined by caspase 9 levels. The results from two independents experiments are shown. ** P<0.01. Data are presented as means±standard deviation of triplicates.
FIG. 4E is a bar graph showing relative caspase activity in primary neurons. Apoptosis as determined by detection of Caspase-9 activity on primary neuron pre-treated with 178 μM PKC translocation inhibitor peptide for 10 minutes and then with 100 nM of HASF for 30 minutes. Thereafter, cells were challenged with 200 μM H2O2 for 3 hours. All samples were measured in replicas N-4 and the experiments was repeated twice. *P<0.05 vs. non-HASF treated cells.
Embryonic rat cortex tissue was purchased from Neuromics (Edina, Minn.). Primary neurons were isolated, cultured on poly-D-lysine coated glass slides according to provided instructions and allowed to grow for 5 days in complete neurobasal media. Cells were treated with PKC-epsilon inhibitor and recombinant protein HASF as described above for cardiomyocytes). For induction of stress the cells were challenged with H202 (50 μM) for 30 min followed by 3 hours of recovery at 37° C. […]

[4] = test system: PKC, Raf, ERK 1/2, PDK1 phosphorylation in adult rat cardiomyocytes; experiment: Western blot analysis of signaling protein phosphorylation (PKC/ERK pathway); format: cell-based
Protocol: FIG. 3A is a photograph of an electrophoretic gel. HASF activates the PKC pathway. A. Western blots analysis for various signaling proteins. Serum-starved adult rat cardiomyocytes were stimulated with 100 nM HASF recombinant protein for various time courses. Cell lysate was collected and the proteins were resolved by SDS-PAGE. Insulin from bovine pancreas was used as a positive control. min: minutes of treatment.
FIG. 3B is a photograph of an immunoblot. Serum-starved adult rat cardiomyocytes were pre-treated with 3 μM PKC inhibitors BIM, Gö6976, or Gö6983 for 30 minutes, then stimulated with 100 nM HASF recombinant protein for 5-10 min and cells were harvested. Total cell lysates were used to analyze the levels of ERK1/2 phosphorylation by western blot analysis.
FIG. 4A is a photograph of an immunoblot. Western blot analysis for PKC E and PKC delta phosphorylation on total cell lysates from serum-starved adult rat cardiomyocytes stimulated with 100 nM HASF recombinant protein at 5 and 30 min. HASF b1 and b2 represent different batches of recombinant protein. PMA was used as positive control.
FIG. 4B is a photograph of an immunoblot. Western blot analysis for ERK1/2 phosphorylation on total cell lysates from adult rat cardiomyocytes pre-treated with 10 pM PKC epsilon translocation inhibitor peptide for 20 min, then 100 nM HASF recombinant protein was added for 5 min or 10 min.
FIGS. 8A-B are photographs of immunoblots. Western blot analysis for PKC a/b and PKC theta phosphorylation on total cell lysates from serum-starved adult rat cardiomyocytes stimulated with 100 nM HASF recombinant protein for the indicated times. HASF batch 1 and 2 represent different batches of recombinant protein. PMA was used as positive control.
Rabbit polyclonal antibodies for phospho-pan PKC, phospho-ERK1/2, phospho-raf, phosphor-PDK1, total Akt were obtained from Cell Signaling Tech. Rabbit polyclonal antibody for phospho-PKC epsilon, phospho-Bad, and GAPDH was obtained from Abeam. HRP-conjugated goat anti-rabbit secondary antibody was obtained from Cell Signaling Tech.

[5] = 100 nM, within 5-10 minutes of treatment

B1: HASF: Hypoxia regulated Akt MSC Factor, secreted protein encoded by C3orf58; recombinant human protein without N-signal sequence, SEQ ID NO:1 or 2 (protein, UniProt Q8NDZ4 36-430, looked up)
Divergent protein kinase …: LASWQRNELTDRRFLQLNKCPACFGTSWCRRFLNGQVVFEAWGRLRLLDFLNVKNVYFAQYGEPREGGRRRVVLKRLGSQRELAQLDQSICKRATGRPRCDLLQAMPRTEFARLNGDVRLLTPEAVEGWSDLVHCPSQRLLDRLVRRYAETKDSGSFLLRNLKDSERMQLLLTLAFNPEPLVLQSFPSDEGWPFAKYLGACGRMVAVNYVGEELWSYFNAPWEKRVDLAWQLMEIAEQLTNNDFEFALYLLDVSFDNFAVGPRDGKVIIVDAENVLVADKRLIRQNKPENWDVWYESKFDDCDKEACLSFSKEILCARATVDHNYYAVCQNLLSRHATWRGTSGGLLHDPPSEIAKDGRLEALLDECANPKKRYGRFQAAKELREYLAQLSNNVR
modifications: 6xHis tag
reduction of infarct fibrosis compared to control untreated animals [1]: 61% | scar (myocardial fibrosis) [1]: 5.7±1.5 % of LV area | reduction in the infarct size [2]: ~58% | attenuation of Caspase 9 levels ([3]; 30 min pretreatment, P<0.05): 20-40% | Caspase 9 levels in challenged neuronal cells ([3]; HASF 30 min): significantly reduced | activity (phosphorylation) of the other PKC isoforms tested (PKC α/β, σ, σ/λ, θ) ([4]; 100 nM HASF): did not affect | phosphorylation of PKCe ([4]; 100 nM HASF, 5 and 30 min): increased the phosphorylation of PKCe selectively | phosphorylation of PDK1 ([4]; 100 nM, 0-60 minutes): not increased | phosphorylation of ERK 1/2 [4, 5]: increased dramatically | phosphorylation of PKC [4, 5]: increased dramatically | phosphorylation of Raf [4, 5]: increased dramatically
